Experiments:
male C57BI6 mice = assay: Chronic liver injury (carbon tetrachloride) plus 2/3 partial hepatectomy in mice; assay type: in vivo, mouse; conditions: for mouse body weight: p<0.001 at day 4
Protocol: Forty-eight male C57BI6 mice aged 10-12 weeks underwent either 2/3 partial hepatectomy, paracetamol intoxication or chronic liver injury plus 2/3 partial hepatectomy. 2/3 partial hepatectomy was performed by ligating the left lobe and left and right median lobes. Paracetamol intoxication was performed by intraperitoneal administration of 350 mg/kg paracetamol dissolved in phosphate buffered saline (PBS). Chronic liver injury plus 2/3 partial hepatectomy was performed by eight weeks intraperitoneal carbon tetrachloride administration 1 mcl/g twice weekly dissolved in olive oil followed by ⅔ partial hepatectomy as described above. […] Control mice (n=8 per injury model) received subcutaneous PBS of appropriate volume. All mice were culled on day 4 following injury (partial hepatectomy or paracetamol intoxication).
Following a midline laparotomy the liver was excised and weighed. Liver weight to body weight ratio was calculated and expressed as a percentage. Livers were fixed in 4% formalin overnight then transferred to 70% ethanol. Livers were then embedded in paraffin blocks and 4 μm sections cut. Immunohistochemistry for Ki67 (a marker of cellular proliferation expressed throughout the cell cycle) was performed following heat mediated antigen retrieval in Tris/EDTA solution at pH9. Hepatocyte proliferation was quantified by counting ki67 positive hepatocytes in 20 high powered fields (400×) per animal and the mean calculated.
The effects of Fc-CSF1 on liver regeneration in murine models of acute liver injury (partial hepatectomy; paracetamol intoxication) and acute-on-chronic liver injury (chronic liver injury plus partial hepatectomy) were studieD. […] Control mice (n=8 per injury model) received subcutaneous PBS of appropriate volume.
CSF1-Fc or control was administered to mice immediately following 2/3 partial hepatectomy on a background of 8 weeks carbon tetrachloride induced chronic liver injury (1 mcl/g carbon tetrachloride/mouse 2×/week).

C57BI6 male mice = assay: Hepatic phagocytic ability after partial hepatectomy (gene analysis, bead clearance assay, ex vivo imaging); assay type: in vivo, mouse
Protocol: C57BI6 male mice (8-10 weeks) underwent either partial hepatectomy (⅔ resection) or paracetamol intoxication (350 mg/kg intraperitoneal following overnight fast). CSF1-Fc was administered as previous (0.75 mg/kg). Gene analysis was performed using Qiagen Quantitect Primers (MSR1 and MARCO) and related to GAPDH level for each sample. […] 0.1 mls of 5000 IU/ml heparin solution was infused to prevent blockage of the catheter. 100 μl of red fluorescent bead solution (1:5 Latex beads 1.0 μm, fluorescent red, SIGMA-ALDRICH®) was infused through the cannula (1:2 solution for assay following paracetamol injury). 20 mcl of blood was removed from the cannula every two minutes starting from 1 minute post injection for 15 minutes. Blood was immediately fixed with 300 μl FACS-Lysing solution (BD Biosceinces). After 15 minutes mice were perfused with 15 mls 0.9% saline through the IVC cannula after dividing the portal vein for outflow. Organs were then removed (Liver, spleen, lungs, kidney, brain) and imaged with a Kodak In-Vivo Multispectral FX image station (Excitation: 550 nm; Emission: 600 nm; Exposure 1 sec; f-stop 2.8). Subsequently blood samples were analysed using a LSR-Fortessa™ flow cytometer (BD Biosciences) with fluorescent beads detected on the blue channel (B695/40) by a 1 minute sample collection on low flow rate setting.

[1] = chronic liver injury with 2/3 partial hepatectomy, vs control
[2] = day 2 following partial hepatectomy

B1: Fc-CSF-1: active fragment of porcine CSF-1 (SEQ ID NO:1) linked to the hinge-CH3 region of porcine IgG1a (SEQ ID NO:2) (protein, listed as Sus scrofa)
chain: SENCSHMIGDGHLKVLQQLIDSQMETSCQIAFEFVDQEQLTDPVCYLKKAFLQVQDILDETMRFRDNTPNANVIVQLQELSLRLNSCFTKDYEEQDKACVRTFYETPLQLLEKIKNVFNETKNLLKKDWNIFSKNCNNSFAKCSSQHERQPEGRGTKTKPPCPICPGCEVAGPSVFIFPPKPKDTLMISQTPEVTCVVVDVSKEHAEVQFSWYVDGVEVHTAETRPKEEQFNSTYRVVSVLPIQHQDWLKGKEFKCKVNNVDLPAPITRTISKAIGQSREPQVYTLPPPAEELSRSKVTVTCLVIGFYPPDIHVEWKSNGQPEPEGNYRTTPPQQDVDGTFFLYSKLAVDKARWDHGETFECAVMHEALHNHYTQKSISKTQGK
fibrosis assessed by Sirius red quantification (male C57BI6 mice; [1]): trend to reduction | liver weight to body weight ratio (male C57BI6 mice; [1]): increased significantly | number of proliferating hepatocytes (male C57BI6 mice; [1]): increased significantly | mouse body weight (male C57BI6 mice; [1]): significant increase in mouse weight | mouse body weight (male C57BI6 mice; chronic liver injury with 2/3 partial hepatectomy, vs control, listed as CSF1-Fc): significant increase in body weight | survival (male C57BI6 mice; chronic liver injury with 2/3 partial hepatectomy, vs control, p=0.08): trend to improved survival | serum ALT (male C57BI6 mice; day 4 post hepatectomy): significant reduction | serum bilirubin (male C57BI6 mice; day 4 post hepatectomy): significant reduction | phagocytic ability of the liver, clearance of fluorescent latex microbeads from the circulation (C57BI6 male mice; 0.75 mg/kg, following partial hepatectomy): dramatically enhanced | fluorescent intensity of whole liver, ex vivo imaging (C57BI6 male mice; 15 minutes after bead injection, following partial hepatectomy): increased fluorescent intensity | MARCO gene expression, whole liver (C57BI6 male mice; [2]): upregulation | MSR1 (macrophage scavenger receptor 1) gene expression, whole liver (C57BI6 male mice; [2]): upregulation

Source: patent US20180112193A1, “CSF1 THERAPEUTICS” (University Court Of The University Of Edinburgh, priority 2013, published 2018)
